Patent US20130197191A1 (published 2013)

Molecular target: recombinant human β-Klotho (UniProt Q86Z14 53-996, biotinylated in the AlphaScreen assays (site not stated))
Assay: binding EC50

Sequence of recombinant human β-Klotho (Q86Z14 53-996): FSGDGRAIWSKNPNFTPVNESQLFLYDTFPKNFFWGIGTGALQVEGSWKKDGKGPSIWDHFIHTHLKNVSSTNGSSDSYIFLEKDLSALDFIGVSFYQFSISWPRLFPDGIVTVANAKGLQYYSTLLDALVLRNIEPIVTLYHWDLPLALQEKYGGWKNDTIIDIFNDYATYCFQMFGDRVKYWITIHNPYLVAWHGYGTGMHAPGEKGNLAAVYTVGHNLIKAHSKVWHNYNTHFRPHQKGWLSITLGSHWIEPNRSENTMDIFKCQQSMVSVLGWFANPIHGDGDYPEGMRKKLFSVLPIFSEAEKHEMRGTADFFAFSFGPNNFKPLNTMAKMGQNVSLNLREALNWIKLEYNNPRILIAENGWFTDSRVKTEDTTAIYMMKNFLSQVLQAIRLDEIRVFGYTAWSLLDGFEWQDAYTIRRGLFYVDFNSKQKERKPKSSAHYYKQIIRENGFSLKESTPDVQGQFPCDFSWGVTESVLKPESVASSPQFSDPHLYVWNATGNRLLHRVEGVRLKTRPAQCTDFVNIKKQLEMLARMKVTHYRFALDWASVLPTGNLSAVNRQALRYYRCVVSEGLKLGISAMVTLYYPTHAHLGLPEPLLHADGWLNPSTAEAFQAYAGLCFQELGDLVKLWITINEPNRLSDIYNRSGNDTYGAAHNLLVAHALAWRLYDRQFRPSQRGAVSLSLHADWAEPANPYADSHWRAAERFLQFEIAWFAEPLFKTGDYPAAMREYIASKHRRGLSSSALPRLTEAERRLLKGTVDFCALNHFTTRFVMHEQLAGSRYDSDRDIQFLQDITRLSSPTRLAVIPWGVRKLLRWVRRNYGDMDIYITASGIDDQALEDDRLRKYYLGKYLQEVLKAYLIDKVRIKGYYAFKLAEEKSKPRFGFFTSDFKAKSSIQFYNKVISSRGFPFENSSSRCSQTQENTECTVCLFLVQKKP

EC50 [nM]	Binder
8.52	β-Klotho walked dimer BK_R1c_D24 (designed binder) CRPDEFPCRSTGRCVPRRWVCDGVDDCGDNSDESLAHCQTPTCQPDEFTCSSGRCIPQPWLCDGLNDCGDGSDEPPAHCSAPASEPPGSL
99	β-Klotho walked dimer BK_R1c_D22 (designed binder) CQPDEFTCSSGRCIPQPWLCDGLNDCGDGSDEPPAHCSAPASEPPGSLCRPDEFRCKNGRCIPQTWVCDGEDDCQDSSDETDCESTVRT

The next lines start with the binder.

Binder	EC50 [nM]
β-Klotho walked dimer BK_R1c_D18 (designed binder) CPPDEFQCRGTKKCLPLAWVCDGDNDCEDDSDEESCASAVHTCQSNEFRCRSGRCIPQHWLCDGLNDCGDGSDESQQCSAPASEPPGSL	21.5
β-Klotho walked dimer BK_R1c_D05 (designed binder) CAAGQFRCHNSDTCLPGAWVCDGDNDCGDNSDEASCQKRTCHSFNQFECRNGQCIPLHLVCDGVPDCGDNSDETDCGDSHILPFSTPGPST	0.01
